The values below come from publication PMC8225904.

This assay concerns the target mAb X’ (E262K sequence variant containing mAb X). Description: ELISA; plates coated with serially diluted mAb, constant amount of C1q added, detected with biotinylated anti-C1q antibody and HRP-streptavidin; relative binding by parallel line analysis against mAb X. For orientation: An ELISA detects its analyte on a solid surface through an enzyme-linked reagent.

On to C1q protein (complex), for which the relative binding against mAb X was 0.95.
